In patent US20210107972A1 (NEURIMMUNE, published 2021):
Blank lines part the entries; values can stand above or below the binder they belong to. No end group written: not given here.

Assays:
[1] = target: bovine serum albumin (BSA) (bovine, UniProt P02769 25-607); assay: direct ELISA, BSA coated at 10 µg/ml
[2] = target: T1, human islet amyloid polypeptide (human IAPP), IAPP solution containing IAPP fibrils (human, not fully specified; disulfide bridge between cysteine residues 2 and 7 and an amidated C-terminus (as the filing describes human IAPP)); assay: direct ELISA, human IAPP solution (fibrils) coated at 10 µg/ml, comparison with chimeric
T1 construct: The human IAPP solution used for ELISA coating contained IAPP fibrils (electron microscopy); also called hIAPP; amylin
T1 peptide: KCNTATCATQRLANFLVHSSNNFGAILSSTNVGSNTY

[3] = target: T2, pathological Aβ amyloid (Alzheimer's disease human brain) (human, UniProt P05067 672-713); assay: immunohistochemistry, paraffin-embedded Alzheimer's disease brain sections
T2 construct: also called Aβ deposits

[4] = target: T1, human islet amyloid polypeptide (human …); assay: direct ELISA, human IAPP solution (fibrils) coated at 10 µg/ml
[5] = target: T3, pepscan peptide 7: 19-SSNNFGAILS-28 (human); assay: pepscan on nitrocellulose membrane, antibody 1 µg/ml
T3 construct: Spotted on a nitrocellulose membrane
T3 peptide: SSNNFGAILS

[6] = target: T4, pepscan peptide 6: 16-LVHSSNNFGA-25 (human); assay: as above
T4 construct: Spotted on a nitrocellulose membrane
T4 peptide: LVHSSNNFGA

[7] = target: T5, pepscan peptide 2: 4-TATCATQRLA-13 (human); assay: pepscan on nitrocellulose membrane
T5 construct: Spotted on a nitrocellulose membrane
T5 peptide: TATCATQRLA

[8] = target: T6, pepscan peptide 1: 1-KCNTATCATQ-10 (human, ends and bridges not checked; cysteine pairing not given here); assay: pepscan on nitrocellulose membrane, antibody 1 µg/ml
T6 construct: Spotted on a nitrocellulose membrane
T6 peptide: KCNTATCATQ

bovine serum albumin (BSA), sequence (P02769 25-607 limits assumed): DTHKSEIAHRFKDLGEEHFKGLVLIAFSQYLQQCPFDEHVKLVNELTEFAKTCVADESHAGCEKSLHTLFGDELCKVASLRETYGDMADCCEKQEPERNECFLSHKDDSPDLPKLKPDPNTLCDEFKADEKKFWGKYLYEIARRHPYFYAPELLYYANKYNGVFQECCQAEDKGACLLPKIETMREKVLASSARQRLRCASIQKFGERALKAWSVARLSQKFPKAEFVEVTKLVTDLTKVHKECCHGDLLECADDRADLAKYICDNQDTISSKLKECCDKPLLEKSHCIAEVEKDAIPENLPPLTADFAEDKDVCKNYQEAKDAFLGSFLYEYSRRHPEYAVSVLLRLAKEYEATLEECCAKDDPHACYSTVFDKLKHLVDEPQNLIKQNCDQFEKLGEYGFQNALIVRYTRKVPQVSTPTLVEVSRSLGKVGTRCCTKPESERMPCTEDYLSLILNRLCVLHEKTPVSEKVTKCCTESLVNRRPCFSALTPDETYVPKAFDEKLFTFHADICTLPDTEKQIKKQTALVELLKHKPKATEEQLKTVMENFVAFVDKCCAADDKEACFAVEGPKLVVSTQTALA

B1: NI-203.8E3 (antibody, V domains shown)
VH: QVQLVQSGAEVKKPGSSVKVSCKASGGTFSSHTISWVRQAPGQGLEWMGGIIPIFGTANYAQKFQDRVTVTADKSTNTAYMELSSLRPEDTAVYYCAKGELEPRILYYYGMDVWGRGTTVTVSS
VL: DVVMTQSPLSLPVTLGQPASISCRSSQSLVYSDGNTYLNWFHQRPGQSPRRLIYKVSNRDSGVPDRFSGSGSGTDFTLKISRVEAEDVGVYYCMQGSNWPGTFGQGTKVEIK
notes: Recombinant human antibody, kappa light chain, detected with anti-human IgG gamma secondary
binding result [1]: no binding

B2: NI-203.19H8 (antibody, V domains shown)
VH: EVQLVESGGGVVQPGTSLRLSCAASGFTFSSYGMHWVRQAPGKGLEWVAIIWYDGSKEYYADSLKGRVTISRDNSENTLYLQLHTLRVEDTAVYFCARTIASATVDHGMDVWGQGTLVTVSS
VL: DVVMTQSPSSVSASVGDRVTITCRASHDISTWLAWYQQRPGKAPNLLIFGASRLQSGVSPRFSGSGSGTDFTLTISSLQPEDFATYYCQQTNNFPPTFGQGTRLEIK
notes: as for B1
EC50 [2]: 22.9 nM
binding result [1]: no binding
binding result [3]: no binding (tested: 50 nM)
EC50 [4]: 22 nM
binding result [5]: binds
binding result [6]: binds

B3: mouse chimeric NI-203.19H8 (antibody, V domains shown)
VH: B2 VH
VL: B2 VL
notes: Mouse chimeric version of the human antibody (said to comprise the CDR domains of the human antibody)
binding result [1]: no binding
EC50 [4]: 23.9 nM

Second part, the binder after the results:

binding result [1]: no binding
binding result [3]: no binding (tested: 50 nM)
B4: NI-203.9A2 (antibody, V domains shown)
VH: EVQLVESGGGLVQPGGSLRLSCAASGFTFSTFAMSWVRQAPGKGLEWVSTISGSGDNTYYADSLKGRFTISRDNSKNTLYLQVNSLRPEDTAVYYCAKSPSSLLATYFDYWGQGTLVTVSS
VL: EIVLTQSPSTLSASVGDRVTITCRASESINSWLAWYQQKPGKGPKLLIYKASSLQSGVPSRFSGSGSGTEFTLTISSLQPDDFATYYCQQHNSYWTFGQGTKVEIK
notes: as for B1

binding result [1]: no binding
B5: mouse chimeric NI-203.9A2 (antibody, V domains shown)
VH: B4 VH
VL: B4 VL
notes: as for B3

binding result [7]: no binding (tested: 1 µg/ml)
binding result [1]: no binding
binding result [3]: no binding (tested: 50 nM)
binding result [8]: binds
B6: NI-203.26C11 (antibody, V domains shown)
VH: QVQLQESGPGLVKPSQTLSLTCTVSGGSISSGNYYWTWIRQPAGKGLEWIGHIYSSGTTNYNPSLESRVTISVDTSKNQFSLSLNSVTAADTAVYYCARPLATVPDAFNIWGQGTMVTVSS
VL: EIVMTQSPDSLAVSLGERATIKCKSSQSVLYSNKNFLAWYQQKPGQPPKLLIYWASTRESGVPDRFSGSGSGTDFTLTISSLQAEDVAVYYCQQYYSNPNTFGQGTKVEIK
notes: as for B1

binding result [1]: no binding
B7: mouse chimeric NI-203.26C11 (antibody, V domains shown)
VH: B6 VH
VL: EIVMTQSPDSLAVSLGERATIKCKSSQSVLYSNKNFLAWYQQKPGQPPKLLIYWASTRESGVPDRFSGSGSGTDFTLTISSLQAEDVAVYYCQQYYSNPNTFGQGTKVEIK
notes: as for B3
